Experimental data: patent US20090054342A1 (COMPUGEN, published 2009)
Values belong to the molecule of their own block, whether it stands above or below them. No end group written: not given here.

Legend:
[1] = biological target: MrgX1 (Mas-related G-protein coupled receptor member X1) (UniProt Q96LB2); assay: cell-based or functional assay
[2] = biological target: MrgX1 (Mas-related G-protein coupled receptor member X1) (UniProt Q96LB2 1-322, limits assumed); assay: cell-based or functional assay
Chain of MrgX1 (Mas-related G-protein coupled receptor member X1) (UniProt Q96LB2 1-322, limits assumed) (Q96LB2 whole entry): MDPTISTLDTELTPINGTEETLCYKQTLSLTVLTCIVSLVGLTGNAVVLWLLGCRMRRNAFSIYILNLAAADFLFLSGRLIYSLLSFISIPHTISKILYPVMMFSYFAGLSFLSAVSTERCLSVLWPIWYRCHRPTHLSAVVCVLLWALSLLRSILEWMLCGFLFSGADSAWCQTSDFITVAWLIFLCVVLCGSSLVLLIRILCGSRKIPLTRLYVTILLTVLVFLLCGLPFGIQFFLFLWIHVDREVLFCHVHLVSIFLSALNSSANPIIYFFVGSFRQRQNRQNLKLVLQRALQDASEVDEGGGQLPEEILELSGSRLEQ

Mas receptor = biological target: T1, Mas receptor (UniProt P04201 1-325, limits assumed); assay: cell-based or functional assay
T1 sequence (looked up): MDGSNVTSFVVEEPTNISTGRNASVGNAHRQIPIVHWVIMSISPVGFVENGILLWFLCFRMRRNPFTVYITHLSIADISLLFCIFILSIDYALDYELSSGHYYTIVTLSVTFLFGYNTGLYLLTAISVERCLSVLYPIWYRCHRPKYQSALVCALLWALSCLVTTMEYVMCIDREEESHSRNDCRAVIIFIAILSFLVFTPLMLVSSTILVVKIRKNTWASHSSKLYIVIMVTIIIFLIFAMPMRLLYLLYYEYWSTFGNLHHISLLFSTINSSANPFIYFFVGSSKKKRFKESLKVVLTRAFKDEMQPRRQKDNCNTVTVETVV

[3] = biological target: T2, FPRL1 (FPR-related receptor 1) (UniProt P25090 1-351, limits assumed); assay: competitive radioligand binding against 0.025 nM [125I] WKYMVm on FPRL1-transfected CHO cells, 90 min at 25 C
T2 construct: whole, on cells; Expressed in CHO cells (with Gα16 in the calcium flux assay); also called lipoxin A4 receptor; LXA4R
T2 sequence (looked up): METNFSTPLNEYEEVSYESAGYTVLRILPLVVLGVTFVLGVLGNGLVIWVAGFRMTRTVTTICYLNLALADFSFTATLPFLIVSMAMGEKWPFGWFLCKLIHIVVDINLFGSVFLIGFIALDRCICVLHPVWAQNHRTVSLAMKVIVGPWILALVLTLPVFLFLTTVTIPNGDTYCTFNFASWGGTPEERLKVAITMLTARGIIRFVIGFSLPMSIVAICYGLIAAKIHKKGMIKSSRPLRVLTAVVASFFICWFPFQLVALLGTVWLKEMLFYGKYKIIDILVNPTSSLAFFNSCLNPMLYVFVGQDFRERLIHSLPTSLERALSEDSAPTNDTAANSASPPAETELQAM
Description: The specific binding of Peptide 58 (SEQ ID NO:1) to FPRL1 was analyzed by testing its ability to compete with 0.025 nM [¹²⁵I] WKYMVm (W peptide), a known agonist of FPRL1, for binding to FPRL1 in CHO transfected cells. CKβ8-1 (aa 46-137), another known ligand of FPRL1 was used as a positive control in this assay (Chiang et al 2006, Pharmacological Reviews 58, 463-487). Peptides were incubated with cells for 90 minutes at 25° C., in the presence of Incubation Buffer (50 mM HEPES, pH 7.4, 100 mM NaCl, 5 mM KCl, 5 mM MgCl2, 2 mM Ca C12, 0.5% BSA) and the amount of radioactive W peptide was measured.

Chain of MrgX1 (Mas-related G-protein coupled receptor member X1) (UniProt Q96LB2) (Q96LB2 whole entry): as the sequence (Q96LB2 whole entry) above

Molecule: BAM22 (bovine adrenal medulla peptide 22) (from UniProt P01211 206-227)
- EC50 (calcium flux dose response) [1]: > 50 nM

Molecule: SMVHRWSRAVLFPAAHRP (also: acetate salt) [Peptide 33_V]
- EC50 (calcium flux dose response) (Mas receptor): ≥ 1000 nM

Results, then the molecule that gave them:

- EC50 (calcium flux dose response) [2]: ≥ 300 nM
Molecule: GIGSVWHWKHRVATRFTLPRFLQ [Peptide 60_S]

- IC50 [3]: 189 nM
- Ki [3]: 54.1 nM
B1: Peptide 58 (peptide)
peptide: TIPMFVPESTSKLQKFTSWFM-NH2
notes: Synthetic peptide (SPPS); also called P58; peptide P58

- EC50 (calcium flux dose response) (Mas receptor): ≥ 500 nM
Molecule: FLGYSIYLNRKRRGDPAFKRRLRD [Peptide 61_S]
